Laboratory results: patent publication US20150344570A1 (published 2015)

B1: GpH7-A5/GpH7-B3 variant G237_20W/GpL16-k0 (antibody, human IgG1, kappa)
heavy 1: not shown
heavy 2: not shown
light: DIVMTQSPLSLPVTPGEPASISCQASESLVHSNRNTYLHWYLQKPGQSPQLLIYKVSNRFSGVPDRFSGSGSGTDFTLKISRVEAEDVGVYYCSQNTHVPPTFGQGTKVEIERTVAAPSVFIFPPSDEQLKSGTASVVCLLNNFYPREAKVQWKVDNALQSGNSQESVTEQDSKDSTYSLSSTLTLSKADYEKHKVYACEVTHQGLSSPVTKSFNRGEC
notes: also called He Ab G237_20W
B2: GpH7-A5/GpH7-B3 variant H268_01G/GpL16-k0 (antibody, human IgG1, kappa)
heavy 1: not shown
heavy 2: not shown
light: DIVMTQSPLSLPVTPGEPASISCQASESLVHSNRNTYLHWYLQKPGQSPQLLIYKVSNRFSGVPDRFSGSGSGTDFTLKISRVEAEDVGVYYCSQNTHVPPTFGQGTKVEIERTVAAPSVFIFPPSDEQLKSGTASVVCLLNNFYPREAKVQWKVDNALQSGNSQESVTEQDSKDSTYSLSSTLTLSKADYEKHKVYACEVTHQGLSSPVTKSFNRGEC
notes: also called He Ab H268_01G
B3: GpH7-A5/GpH7-B3 variant H268_03V/GpL16-k0 (antibody, human IgG1, kappa)
heavy 1: not shown
heavy 2: not shown
light: DIVMTQSPLSLPVTPGEPASISCQASESLVHSNRNTYLHWYLQKPGQSPQLLIYKVSNRFSGVPDRFSGSGSGTDFTLKISRVEAEDVGVYYCSQNTHVPPTFGQGTKVEIERTVAAPSVFIFPPSDEQLKSGTASVVCLLNNFYPREAKVQWKVDNALQSGNSQESVTEQDSKDSTYSLSSTLTLSKADYEKHKVYACEVTHQGLSSPVTKSFNRGEC
notes: also called He Ab H268_03V
B4: GpH7-A5/GpH7-B3 variant H268_05P/GpL16-k0 (antibody, human IgG1, kappa)
heavy 1: not shown
heavy 2: not shown
light: DIVMTQSPLSLPVTPGEPASISCQASESLVHSNRNTYLHWYLQKPGQSPQLLIYKVSNRFSGVPDRFSGSGSGTDFTLKISRVEAEDVGVYYCSQNTHVPPTFGQGTKVEIERTVAAPSVFIFPPSDEQLKSGTASVVCLLNNFYPREAKVQWKVDNALQSGNSQESVTEQDSKDSTYSLSSTLTLSKADYEKHKVYACEVTHQGLSSPVTKSFNRGEC
notes: also called He Ab H268_05P
B5: GpH7-A5/GpH7-B3 variant H268_11K/GpL16-k0 (antibody, human IgG1, kappa)
heavy 1: not shown
heavy 2: not shown
light: DIVMTQSPLSLPVTPGEPASISCQASESLVHSNRNTYLHWYLQKPGQSPQLLIYKVSNRFSGVPDRFSGSGSGTDFTLKISRVEAEDVGVYYCSQNTHVPPTFGQGTKVEIERTVAAPSVFIFPPSDEQLKSGTASVVCLLNNFYPREAKVQWKVDNALQSGNSQESVTEQDSKDSTYSLSSTLTLSKADYEKHKVYACEVTHQGLSSPVTKSFNRGEC
notes: also called He Ab H268_11K
B6: GpH7-A5/GpH7-B3 variant H268_12R/GpL16-k0 (antibody, human IgG1, kappa)
heavy 1: not shown
heavy 2: not shown
light: DIVMTQSPLSLPVTPGEPASISCQASESLVHSNRNTYLHWYLQKPGQSPQLLIYKVSNRFSGVPDRFSGSGSGTDFTLKISRVEAEDVGVYYCSQNTHVPPTFGQGTKVEIERTVAAPSVFIFPPSDEQLKSGTASVVCLLNNFYPREAKVQWKVDNALQSGNSQESVTEQDSKDSTYSLSSTLTLSKADYEKHKVYACEVTHQGLSSPVTKSFNRGEC
notes: also called He Ab H268_12R
B7: GpH7-A5/GpH7-B3 variant H268_15Y/GpL16-k0 (antibody, human IgG1, kappa)
heavy 1: not shown
heavy 2: not shown
light: DIVMTQSPLSLPVTPGEPASISCQASESLVHSNRNTYLHWYLQKPGQSPQLLIYKVSNRFSGVPDRFSGSGSGTDFTLKISRVEAEDVGVYYCSQNTHVPPTFGQGTKVEIERTVAAPSVFIFPPSDEQLKSGTASVVCLLNNFYPREAKVQWKVDNALQSGNSQESVTEQDSKDSTYSLSSTLTLSKADYEKHKVYACEVTHQGLSSPVTKSFNRGEC
notes: also called He Ab H268_15Y
B8: GpH7-A5/GpH7-B3 variant H268_20W/GpL16-k0 (antibody, human IgG1, kappa)
heavy 1: not shown
heavy 2: not shown
light: DIVMTQSPLSLPVTPGEPASISCQASESLVHSNRNTYLHWYLQKPGQSPQLLIYKVSNRFSGVPDRFSGSGSGTDFTLKISRVEAEDVGVYYCSQNTHVPPTFGQGTKVEIERTVAAPSVFIFPPSDEQLKSGTASVVCLLNNFYPREAKVQWKVDNALQSGNSQESVTEQDSKDSTYSLSSTLTLSKADYEKHKVYACEVTHQGLSSPVTKSFNRGEC
notes: also called He Ab H268_20W
B9: GpH7-A5/GpH7-B3 variant I332_06M/GpL16-k0 (antibody, human IgG1, kappa)
heavy 1: not shown
heavy 2: not shown
light: DIVMTQSPLSLPVTPGEPASISCQASESLVHSNRNTYLHWYLQKPGQSPQLLIYKVSNRFSGVPDRFSGSGSGTDFTLKISRVEAEDVGVYYCSQNTHVPPTFGQGTKVEIERTVAAPSVFIFPPSDEQLKSGTASVVCLLNNFYPREAKVQWKVDNALQSGNSQESVTEQDSKDSTYSLSSTLTLSKADYEKHKVYACEVTHQGLSSPVTKSFNRGEC
notes: also called He Ab I332_06M
B10: GpH7-A5/GpH7-B3 variant I332_14T/GpL16-k0 (antibody, human IgG1, kappa)
heavy 1: not shown
heavy 2: not shown
light: DIVMTQSPLSLPVTPGEPASISCQASESLVHSNRNTYLHWYLQKPGQSPQLLIYKVSNRFSGVPDRFSGSGSGTDFTLKISRVEAEDVGVYYCSQNTHVPPTFGQGTKVEIERTVAAPSVFIFPPSDEQLKSGTASVVCLLNNFYPREAKVQWKVDNALQSGNSQESVTEQDSKDSTYSLSSTLTLSKADYEKHKVYACEVTHQGLSSPVTKSFNRGEC
notes: also called He Ab I332_14T
B11: GpH7-A5/GpH7-B3 variant I336_06M/GpL16-k0 (antibody, human IgG1, kappa)
heavy 1: not shown
heavy 2: not shown
light: DIVMTQSPLSLPVTPGEPASISCQASESLVHSNRNTYLHWYLQKPGQSPQLLIYKVSNRFSGVPDRFSGSGSGTDFTLKISRVEAEDVGVYYCSQNTHVPPTFGQGTKVEIERTVAAPSVFIFPPSDEQLKSGTASVVCLLNNFYPREAKVQWKVDNALQSGNSQESVTEQDSKDSTYSLSSTLTLSKADYEKHKVYACEVTHQGLSSPVTKSFNRGEC
notes: also called He Ab I336_06M

These binders were tested against T1, FcγRIIa R (human, UniProt P12318 34-217) (assay: SPR (Biacore), captured antibody, FcγR as analyte; relative binding activity).
T1 construct: extracellular domain; also called FcgRIIa R type; 2aR
T1 sequence (looked up): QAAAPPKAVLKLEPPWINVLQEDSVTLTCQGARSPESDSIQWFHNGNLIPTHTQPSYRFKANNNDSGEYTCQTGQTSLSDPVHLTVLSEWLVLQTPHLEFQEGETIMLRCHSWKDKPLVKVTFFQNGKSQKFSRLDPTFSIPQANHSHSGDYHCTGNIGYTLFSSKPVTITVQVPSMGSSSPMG
In the case of B1, the He/Con_2aR is reported as 138 % (GpH7-A5/GpH7-B3/GpL16-k0 = 100).
B2 was tested, and the He/Con_2aR was 124 % (GpH7-A5/GpH7-B3/GpL16-k0 = 100).
For B3, the He/Con_2aR was 109 % (GpH7-A5/GpH7-B3/GpL16-k0 = 100).
B4 was tested, and the He/Con_2aR was 106 % (GpH7-A5/GpH7-B3/GpL16-k0 = 100).
With B5 the He/Con_2aR was 100 % (GpH7-A5/GpH7-B3/GpL16-k0 = 100).
For B6, the He/Con_2aR was 105 % (GpH7-A5/GpH7-B3/GpL16-k0 = 100).
In the case of B7, the He/Con_2aR is reported as 110 % (GpH7-A5/GpH7-B3/GpL16-k0 = 100).
With B8 the He/Con_2aR was 113 % (GpH7-A5/GpH7-B3/GpL16-k0 = 100).
For B9, the He/Con_2aR was 109 % (GpH7-A5/GpH7-B3/GpL16-k0 = 100).
B10 was tested, and the He/Con_2aR was 105 % (GpH7-A5/GpH7-B3/GpL16-k0 = 100).
In the case of B11, the He/Con_2aR is reported as 106 % (GpH7-A5/GpH7-B3/GpL16-k0 = 100).
